Assay results reported in patent US20030158389A1.
Read-outs that look alike come from different tables or passages of the source.

Legend:
[1] = molecular target: human C1q (Quidel, San Diego, Calif.) (human) (UniProt P02745); experiment: cell-based or functional assay
[2] = molecular target: human C1q (Quidel, San Diego, Calif.) (human) (UniProt P02745); experiment: C1q binding ELISA, antibody coated on plate, 2 µg/ml C1q
[3] = molecular target: CD20 antigen on WIL2-S cells (UniProt P11836); experiment: flow cytometry on WIL2-S cells expressing CD20
[4] = molecular target: human C1q (Quidel, San Diego, Calif.) (human) (UniProt P02745); experiment: C1q binding ELISA, antibody coated on plate, 2 µg/ml C1q; remark: listed apart in the source

CD20 antigen on WIL2-S cells, sequence (P11836 whole entry): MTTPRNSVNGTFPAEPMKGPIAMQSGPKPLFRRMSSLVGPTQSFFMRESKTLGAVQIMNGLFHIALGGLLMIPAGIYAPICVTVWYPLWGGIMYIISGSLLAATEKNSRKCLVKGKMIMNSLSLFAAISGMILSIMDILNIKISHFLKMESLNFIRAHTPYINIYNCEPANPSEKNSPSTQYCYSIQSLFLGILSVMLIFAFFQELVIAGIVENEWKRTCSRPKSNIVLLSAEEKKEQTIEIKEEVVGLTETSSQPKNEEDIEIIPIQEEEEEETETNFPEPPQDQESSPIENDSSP
human C1q (Quidel, San Diego, Calif.) (human), sequence (P02745 23-245 limits assumed, chain 1 of 3): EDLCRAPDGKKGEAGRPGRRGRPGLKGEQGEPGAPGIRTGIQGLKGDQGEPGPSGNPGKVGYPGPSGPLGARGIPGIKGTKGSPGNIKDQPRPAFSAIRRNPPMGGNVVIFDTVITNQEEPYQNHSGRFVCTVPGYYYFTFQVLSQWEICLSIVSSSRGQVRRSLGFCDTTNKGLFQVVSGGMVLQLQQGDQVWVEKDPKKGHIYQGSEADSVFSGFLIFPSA
human C1q (Quidel, San Diego, Calif.) (human), sequence (P02746 28-253 limits assumed, chain 2 of 3, further chain): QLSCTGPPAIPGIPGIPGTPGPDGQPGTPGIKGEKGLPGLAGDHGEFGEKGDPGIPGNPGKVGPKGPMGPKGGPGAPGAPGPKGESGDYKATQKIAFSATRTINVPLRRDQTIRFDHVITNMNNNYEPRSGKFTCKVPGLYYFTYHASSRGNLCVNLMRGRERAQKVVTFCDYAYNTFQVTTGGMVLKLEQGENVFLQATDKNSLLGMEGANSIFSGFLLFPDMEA
human C1q (Quidel, San Diego, Calif.) (human), sequence (P02747 29-245 limits assumed, chain 3 of 3, further chain): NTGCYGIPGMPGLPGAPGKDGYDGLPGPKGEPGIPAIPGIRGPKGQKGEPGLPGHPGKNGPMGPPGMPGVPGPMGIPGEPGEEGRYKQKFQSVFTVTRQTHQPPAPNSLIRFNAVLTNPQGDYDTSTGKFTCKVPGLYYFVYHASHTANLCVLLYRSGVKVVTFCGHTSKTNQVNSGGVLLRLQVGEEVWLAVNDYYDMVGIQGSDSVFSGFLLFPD

“C2B8 double mutant K326A-E333A (antibody)” was tested, and the CDC, fold better than wild type C2B8 [1] was > 2 fold and the fold better binding than wild type C2B8 [2] was > 3 fold.
In the case of “C2B8 double mutant K326M-E333S (antibody)”, the CDC, fold better than wild type C2B8 [1] is reported as > 2 fold and the fold better binding than wild type C2B8 [2] is reported as > 3 fold.
With C2B8 mutant E318A (antibody) the CDC, percentage of the wild type [1] was 108%, the EC50 as percentage of the wild type [3] was 89% and the percent decrease in binding against wild type C2B8 [2] was 30%.
Work on C2B8 mutant E333A (antibody) yielded an EC50 [2] of 0.98 µg/mL and a percent increase in binding against wild type [2] of 30%.
For C2B8 mutant E333D (antibody), the EC50 [2] was 1.22 µg/mL.
C2B8 mutant E333G (antibody) gave an EC50 [2] of 1.14 µg/mL.
In the case of C2B8 mutant E333Q (antibody), the EC50 [2] is reported as 1.52 µg/mL.
Substance C2B8 mutant E333S (antibody) has an EC50 [2] of 0.81 µg/mL and a fold increase in binding against wild type [2] of 2 fold.
Work on C2B8 mutant E333V (antibody) yielded an EC50 [2] of 1.18 µg/mL.
Work on C2B8 mutant K320A (antibody) yielded a CDC, percentage of the wild type [1] of 108% and an EC50 as percentage of the wild type [3] of 102%.
For C2B8 mutant K326A (antibody), the EC50 [2] was 1.03 µg/mL and the percent increase in binding against wild type [2] was 30%.
With C2B8 mutant K326D (antibody) the EC50 [2] was 0.76 µg/mL and the fold increase in binding against wild type [4] was > 2 fold.
In the case of C2B8 mutant K326E (antibody), the EC50 [2] is reported as 1.08 µg/mL and the fold increase in binding against wild type [4] is reported as > 2 fold.
With C2B8 mutant K326G (antibody) the EC50 [2] was 0.95 µg/mL.
In the case of C2B8 mutant K326M (antibody), the EC50 [2] is reported as 0.67 µg/mL and the fold increase in binding against wild type [4] is reported as > 2 fold.
C2B8 mutant K326V (antibody) was tested, and the EC50 [2] was 1.3 µg/mL.
In the case of C2B8 mutant K326W (antibody), the EC50 [2] is reported as 0.47 µg/mL, the fold increase in binding against wild type [2] is reported as 5 fold and the fold increase in binding against wild type [4] is reported as > 2 fold.
In the case of C2B8 mutant K334A (antibody), the EC50 [2] is reported as 1.07 µg/mL and the percent increase in binding against wild type [2] is reported as > 30%.
In the case of C2B8 mutant P329A (antibody), the EC50 as percentage of the wild type [3] is reported as 112%.
For C2B8 mutant P331A (antibody), the EC50 as percentage of the wild type [3] was 103% and the fold lower binding than wild type C2B8 [2] was 60 fold.
For “C2B8 mutant with A327 in the human IgG1 constant region changed to glycine (antibody)”, the percent increase in binding against wild type [2] was 50%.
